# In US20250092158A1:
# Biological target: human Quiescin Sulfhydryl Oxidase 1 (QSOX1) (human) (UniProt O00391)
# Test: oxygen electrode assay of QSOX1 (25 nM) on DTT (200 uM), antibody varied, Morrison tight-binding fit
# Chain of UniProt O00391 (O00391 33-546): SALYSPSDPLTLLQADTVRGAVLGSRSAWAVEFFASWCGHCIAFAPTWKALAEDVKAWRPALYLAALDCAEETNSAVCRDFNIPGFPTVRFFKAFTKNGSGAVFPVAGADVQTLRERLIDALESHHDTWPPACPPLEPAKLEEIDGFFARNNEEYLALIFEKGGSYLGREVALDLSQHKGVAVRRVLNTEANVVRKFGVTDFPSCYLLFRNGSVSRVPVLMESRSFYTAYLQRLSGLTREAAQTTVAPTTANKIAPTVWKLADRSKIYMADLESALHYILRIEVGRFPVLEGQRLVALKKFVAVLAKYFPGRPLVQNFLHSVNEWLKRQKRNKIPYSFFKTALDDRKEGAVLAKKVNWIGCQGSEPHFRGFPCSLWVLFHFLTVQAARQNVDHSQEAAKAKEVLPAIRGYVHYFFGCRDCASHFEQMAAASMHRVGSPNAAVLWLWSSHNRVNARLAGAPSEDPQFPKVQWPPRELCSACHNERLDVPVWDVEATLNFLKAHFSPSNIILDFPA
row,Ki,Binder
1,< 1 nM,"humanized anti-QSOX1 antibody H3K4 (antibody, human IgG1, kappa, V domains shown) VH: QVQLVESGGGLVQPGGSLRLSCSVSGFSLTGYGVNWVRQAPGKGLEWLGMIWGDGRTDYADSVKGRFTISRDNSKNTLYLQMSSLRAEDTAVYYCASDYYGSGSFAYWGQGTLVTVSS VL: DIVMTQSPDSLAVSLGERATINCKASQDVSTAVAWYQQKPGQPPKLLIHSASYRYTGVPDRFSGSGSGTDFTLTISSLQAEDVAVYYCQQHYSIPLTFGQGTRLEIKR"
2,< 1 nM,"humanized anti-QSOX1 antibody H2bK4 (antibody, human IgG1, kappa, V domains shown) VH: QITLKESGPTLVKPTQTLTLTCTVSGFSLTGYGVNWIRQPPGKALEWLGMIWGDGRTDYSPSLKSRLTITKDTSKNQVVLTMTNMDPVDTATYYCASDYYGSGSFAYWGRGTLVTVSS VL: DIVMTQSPDSLAVSLGERATINCKASQDVSTAVAWYQQKPGQPPKLLIHSASYRYTGVPDRFSGSGSGTDFTLTISSLQAEDVAVYYCQQHYSIPLTFGQGTRLEIKR"
3,< 1 nM,"humanized anti-QSOX1 antibody H3newK2 (antibody, human IgG1, kappa, V domains shown) VH: QVQLVESGGGLVQPGRSLRLSCTVSGFSLTGYGVNWFRQAPGKGLEWLGMIWGDGRTDYTASVKGRFTISRDGSKSIAYLQMNSLKTEDTAVYYCASDYYGSGSFAYWGQGTLVTVSS VL: DIVMTQTPLSLSVTPGQPASISCKASQDVSTAVAWYLQKPGQPPQLLIHSASYRYTGVPDRFSGSGSGTDFTLKISRVEAEDVGVYYCQQHYSIPLTFGPGTKVDIKR"
4,< 1 nM,"humanized anti-QSOX1 antibody H3newK4 (antibody, human IgG1, kappa, V domains shown) VH: QVQLVESGGGLVQPGRSLRLSCTVSGFSLTGYGVNWFRQAPGKGLEWLGMIWGDGRTDYTASVKGRFTISRDGSKSIAYLQMNSLKTEDTAVYYCASDYYGSGSFAYWGQGTLVTVSS VL: DIVMTQSPDSLAVSLGERATINCKASQDVSTAVAWYQQKPGQPPKLLIHSASYRYTGVPDRFSGSGSGTDFTLTISSLQAEDVAVYYCQQHYSIPLTFGQGTRLEIKR"
